Results on three molecules are retold here after patent US20210309718A1 (THERACHON, published 2021).

Sequences and labels used below:
B2: sFGFR3_Del4-D3 (receptor)
chain: ESLGTEQRVVGRAAEVPGPEPGQQEQLVFGSGDAVELSCPPPGGGPMGPTVWVKDGTGLVPSERVLVGPQRLQVLNASHEDSGAYSCRQRLTQRVLCHFSVRVTDAPSSGDDEDGEDEAEDTGVDTGAPYWTRPERMDKKLLAVPAANTVRFRCPAAGNPTPSISWLKNGREFRGEHRIGGIKLRHQQWSLVMESVVPSDRGNYTCVVENKFGSIRQTYTLDVLERSPHRPILQAGLPANQTAVLGSDVEFHCKVYSDAQPHIQWLKHVEVNGSKVGPDGTPYVTVLKTAGANTTDKELEVLSLHNVTFEDAGEYTCLAGNSIGFSHHSAWLVVLPVSLESNASMSSNT
notes: Secreted form without signal peptide; also called sFGFR3_Del4 with extended Ig-like C2-type domain 3

Assay [1] concerns the target B2. Kind of assay: SPR (Biacore T200), immobilised sFGFR3_Del4-D3, FGF as analyte, 2:1 (conformational change) model, kd2. In general terms: SPR reads the build-up and loss of mass on a sensor chip optically.
Assay [2] deals with B2. As to the kind of experiment: SPR (Biacore T200), immobilised sFGFR3_Del4-D3, kinetic fit, 2:1 model.
Assay [3] deals with B2. Kind of assay: SPR (Biacore T200), immobilised sFGFR3_Del4-D3, FGF as analyte, 2:1 (conformational change) model, ka1.
The target of assay [4] is B2. As to the kind of experiment: SPR (Biacore T200), immobilised sFGFR3_Del4-D3, FGF as analyte, 2:1 (conformational change) model, kd1.
Assay [5] deals with T1, human FGF9 (human, UniProt P31371 4-208). As to the kind of experiment: SPR (Biacore T200), immobilised sFGFR3_Del4-D3, kinetic fit, 2:1 model.
The target in assay [6] is T1, human FGF9. As to the kind of experiment: SPR (Biacore T200), immobilised sFGFR3_Del4-D3, steady state.
Assay [7] has as its target T1, human FGF9. As to the kind of experiment: SPR (Biacore T200), immobilised sFGFR3_Del4-D3, FGF as analyte, 2:1 (conformational change) model, ka1.
Assay [8] deals with T1, human FGF9. Kind of assay: SPR (Biacore T200), immobilised sFGFR3_Del4-D3, FGF as analyte, 2:1 (conformational change) model, kd1.
In assay [9] the target is B2. As to the kind of experiment: SPR (Biacore T200), immobilised sFGFR3_Del4-D3, steady state.
The target in assay [10] is B2. Kind of assay: SPR (Biacore T200), immobilised sFGFR3_Del4-D3, kinetic fit, 1:1 model.
Assay [11] addresses B2. Kind of assay: SPR (Biacore T200), immobilised sFGFR3_Del4-D3, FGF as analyte, 1:1 model, ka1.

B1: human FGF21 (ligand)
chain: HPIPDSSPLLQFGGQVRQRYLYTDDAQQTEAHLEIREDGTVGGAADQSPESLLQLKALKPGVIQILGVKTSRFLCQRPDGALYGSLHFDPEACSFRELLLEDGYNVYQSEAHGLPLHLPGNKSPHRDPAPRGPARFLPLPGLPPALPEPPGILAPQPPDVGSSDPLSMVGPSQGRSPSYAS
notes: also called hFGF21; fibroblast growth factor 21
What is called Kd is a measure of binding affinity in units of concentration. The low end stands for a tighter complex, the high end for a looser complex. The term kon denotes the second-order rate constant of association. A high value points to fast association. For orientation: koff means the first-order rate constant of dissociation. Low readings indicate slow dissociation, high ones fast dissociation. Turning to B1, the kd2 in the assay with sFGFR3_Del4-D3 [1] is 0.0014 s⁻¹. In addition, in the assay with sFGFR3_Del4-D3 [2], the dissociation constant Kd worked out at 28000 nM. The molecule further had a kon in the assay with sFGFR3_Del4-D3 [3] of 258 M⁻¹ s⁻¹. The off-rate (koff) with sFGFR3_Del4-D3 [4] amounted to 0.0055 s⁻¹.

Take B2: the Kd with human FGF9 [5] came to 1.8 nM; in the assay with human FGF9 [6], 3.6 nM. In the assay with human FGF9 [7], the kon is 2.3e+06 M⁻¹ s⁻¹. In the assay with human FGF9 [8], this molecule showed a koff of 0.026 s⁻¹.

B3: human FGF18 (ligand)
chain: EENVDFRIHVENQTRARDDVSRKQLRLYQLYSRTSGKHIQVLGRRISARGEDGDKYAQLLVETDTFGSQVRIKGKETEFYLCMNRKGKLVGKPDGTSKECVFIEKVLENNYTALMSAKYSGWYVGFTKKGRPRKGPKTRENQQDVHFMKRYPKGQPELQKPFKYTTVTKRSRRIRPTHPA
notes: also called hFGF18; fibroblast growth factor 18
On to B3, for which the Kd with sFGFR3_Del4-D3 [9] is 6.4 nM; in the assay with sFGFR3_Del4-D3 [10], 4.5 nM. In the assay with sFGFR3_Del4-D3 [11], this molecule showed a kon of 200000 M⁻¹ s⁻¹.
